For experiment [1], the target named is KIR on patient NK cells (KIR2D receptors; KIR2DL1 and KIR2DL2/3). The experiment in a line: receptor occupancy on patient NK cells by flow cytometry after a single i.v. dose of 0.003 mg/kg (AML dose-escalation trial).
Experiment [2] has the same target. The experiment in a line: receptor occupancy on patient NK cells by flow cytometry after a single i.v. dose of 0.0003 mg/kg (AML dose-escalation trial).

KIR occupancy data for one substance are collected here from US20130251711A1.

On to anti-KIR antibody 1-7F9, for which the KIR occupancy is 90% in experiment [1] and 50% in experiment [2].
